Consider 38 molecules from patent US20090060919A1 (AstraZeneca / MedImmune, published 2009).

B1: Antibody 26 IgG (antibody, V domains shown)
VH: QVQLVQSGAEVKKPGATVKLSCKVYGYIFTDYNIYWVRQAPGKGLEWMGLIDPDNGETFYAEKFQGRATMTADTSSDRAYMELTSLTFEDTATYYCATVSLKEAKGGYDYWGRGTLVTVSS
VL: QSVLTQPPSVSGAPGQRVTISCTGSSSNIGAGYDVHWYQQLPGTAPKLLIYDNFNRPSGVPDRFSGSKSGTSASLAIIGLQTEDEADYYCQSYDSASRHAPFGTGTKLTVL
B2: Antibody 21 IgG (antibody, V domains shown)
VH: B1 VH with S100T, E103S
VL: B1 VL with A96S, R98Q, H99L, A100S
B3: Antibody 18 IgG (antibody, V domains shown)
VH: B1 VH with S100L, K102R, E103S
VL: B1 VL with A96H, S97L, R98Q, H99L, A100S
notes: Whole human IgG (section 1.4: IgG1)
B4: Antibody 22 IgG (antibody, V domains shown)
VH: B1 VH with S100T, E103S
VL: B1 VL with A96S, S97G, R98G, H99Y
B5: Antibody 4 IgG (antibody, V domains shown)
VH: B1 VH with S100M, L101G, E103W, A104I
VL: B1 VL with A96R, S97G, R98G, A100S
notes: as for B3
B6: Antibody 16 IgG (antibody, V domains shown)
VH: B1 VH with E103S
VL: B1 VL with A96R, S97H, R98H
notes: as for B3
B7: Antibody 28 IgG (antibody, V domains shown)
VH: B1 VH with S100M, L101G, E103W, A104I
VL: B1 VL with A96S, R98L, A100S
notes: as for B3
B8: Antibody 5 IgG (antibody, V domains shown)
VH: B1 VH with S100M, L101G, E103W, A104I
VL: B1 VL with A96T, S97K, R98H, H99T, A100S
notes: as for B3
B9: Antibody 20 IgG (antibody, V domains shown)
VH: B1 VH with S100M, L101G, E103W, A104I
VL: B1 VL with A96S, S97T, R98S, H99S, A100S
notes: as for B3
B10: Antibody 23 IgG (antibody, V domains shown)
VH: B1 VH with S100M, L101G, E103W, A104I
VL: B1 VL with A96H, S97H, R98L, H99Y, A100S, P101S
notes: as for B3
B11: Antibody 12 IgG (antibody, V domains shown)
VH: B1 VH with S100M, L101G, E103W, A104I
VL: B1 VL with A96S, S97I, R98D, A100S
notes: as for B3
B12: Antibody 13 IgG (antibody, V domains shown)
VH: B1 VH with S100M, L101G, E103W, A104I
VL: B1 VL with A96N, S97I, R98L, H99Y, A100S
notes: as for B3
B13: Antibody 6 IgG (antibody, V domains shown)
VH: B1 VH with S100M, L101G, E103W, A104I
VL: B1 VL with A96T, S97M, A100G
notes: as for B3
B14: Antibody 19 IgG (antibody, V domains shown)
VH: B1 VH with S100M, L101G, E103W, A104I
VL: B1 VL with A96T, S97L, R98S, A100S
notes: as for B3
B15: Antibody 25 scFv (scFv, V domains shown)
VH: B1 VH with S100T, E103S
VL: B1 VL with A96N, S97H, R98K, H99T, A100S
notes: Purified scFv, non-germlined
B16: Antibody 21 scFv (scFv, V domains shown)
VH: B1 VH with S100T, E103S
VL: B1 VL with A96S, R98Q, H99L, A100S
notes: Purified scFv, non-germlined
B17: Antibody 22 scFv (scFv, V domains shown)
VH: B1 VH with S100T, E103S
VL: B1 VL with A96S, S97G, R98G, H99Y
notes: Purified scFv, non-germlined
B18: Antibody 18 scFv (scFv, V domains shown)
VH: B1 VH with S100L, K102R, E103S
VL: B1 VL with A96H, S97L, R98Q, H99L, A100S
notes: Purified scFv, non-germlined
B19: Antibody 23 scFv (scFv, V domains shown)
VH: B1 VH with S100M, L101G, E103W, A104I
VL: B1 VL with A96H, S97H, R98L, H99Y, A100S, P101S
notes: Purified scFv, non-germlined
B20: Antibody 24 scFv (scFv, V domains shown)
VH: B1 VH with S100T, E103T
VL: B1 VL with A96R, S97N, R98G, H99Y, A100G, P101G
notes: Purified scFv, non-germlined
B21: Antibody 3 scFv (scFv, V domains shown)
VH: B1 VH with S100M, L101G, E103W, A104I
VL: B1 VL with A96T, S97F, R98N
notes: Purified scFv, non-germlined; not shown: scFv linker and any tags; the libraries are only cited to Vaughan et al. 1996
B22: Antibody 10 scFv (scFv, V domains shown)
VH: B1 VH with K102R, E103A
VL: B1 VL with A96E, S97Q, R98E, H99L
notes: Purified scFv, non-germlined
B23: Antibody 9 scFv (scFv, V domains shown)
VH: B1 VH with S100T, K102R, E103S
VL: B1 VL with A96P, R98S, H99T, A100S
notes: Purified scFv, non-germlined
B24: Antibody 27 scFv (scFv, V domains shown)
VH: B1 VH
VL: B1 VL with A96P, S97T, R98Q, H99T, A100S
notes: Purified scFv, non-germlined
B25: Antibody 26 scFv (scFv, V domains shown)
VH: B1 VH
VL: B1 VL
notes: Purified scFv, non-germlined
B26: Antibody 2 scFv (scFv, V domains shown)
VH: B1 VH with K102R, E103S
VL: B1 VL with A96S, S97L, R98S, H99G, A100S, P101L
notes: as for B21
B27: Antibody 28 scFv (scFv, V domains shown)
VH: B1 VH with S100M, L101G, E103W, A104I
VL: B1 VL with A96S, R98L, A100S
notes: Purified scFv, non-germlined
B28: Antibody 17 scFv (scFv, V domains shown)
VH: B1 VH with S100T, E103S
VL: B1 VL with A96Q, R98S, H99T, A100S
notes: Purified scFv, non-germlined
B29: Antibody 14 scFv (scFv, V domains shown)
VH: B1 VH with S100M, L101G, E103W, A104I
VL: B1 VL with A96H, S97H, A100S
notes: Purified scFv, non-germlined
B30: Antibody 7 scFv (scFv, V domains shown)
VH: B1 VH with S100T, E103S
VL: B1 VL with A96D, S97R, H99N, A100S
notes: Purified scFv, non-germlined
B31: Antibody 15 scFv (scFv, V domains shown)
VH: B1 VH with S100T, E103T
VL: B1 VL with A96H, S97K, R98G, H99Y, A100G, P101G
notes: Purified scFv, non-germlined
B32: Antibody 6 scFv (scFv, V domains shown)
VH: B1 VH with S100M, L101G, E103W, A104I
VL: B1 VL with A96T, S97M, A100G
notes: as for B21
B33: Antibody 1 scFv (scFv, V domains shown)
VH: B1 VH with S100L, L101H, K102R, E103R, A104L
VL: B1 VL with A96S, S97L, R98S, H99G, A100S, P101L
notes: Purified scFv, non-germlined; also called parent; not shown: scFv linker and any tags; the libraries are only cited to Vaughan et al. 1996
B34: Antibody 16 scFv (scFv, V domains shown)
VH: B1 VH with E103S
VL: B1 VL with A96R, S97H, R98H
notes: Purified scFv, non-germlined
B35: Antibody 5 scFv (scFv, V domains shown)
VH: B1 VH with S100M, L101G, E103W, A104I
VL: B1 VL with A96T, S97K, R98H, H99T, A100S
notes: as for B21
B36: Antibody 4 scFv (scFv, V domains shown)
VH: B1 VH with S100M, L101G, E103W, A104I
VL: B1 VL with A96R, S97G, R98G, A100S
notes: as for B21
B37: Antibody 11 scFv (scFv, V domains shown)
VH: B1 VH with S100M, L101G, E103W, A104I
VL: B1 VL with A96P, S97T, R98L, H99T, A100S
notes: Purified scFv, non-germlined
B38: Antibody 8 scFv (scFv, V domains shown)
VH: B1 VH with S100L, L101G, K102R, E103W, A104I
VL: B1 VL with A96P, S97T, R98H, H99T, A100S
notes: Purified scFv, non-germlined

For orientation: IC50 means the concentration that gives 50% inhibition.

Numbering of substitutions follows the chain as printed.

For the first assay, the target named is T1, human IgEλ (U266 derived) (human, UniProt P01854-1 1-428). Briefly: cell-based or functional assay.
T1 sequence (P01854 other isoform, or with tags, fused parts or gaps): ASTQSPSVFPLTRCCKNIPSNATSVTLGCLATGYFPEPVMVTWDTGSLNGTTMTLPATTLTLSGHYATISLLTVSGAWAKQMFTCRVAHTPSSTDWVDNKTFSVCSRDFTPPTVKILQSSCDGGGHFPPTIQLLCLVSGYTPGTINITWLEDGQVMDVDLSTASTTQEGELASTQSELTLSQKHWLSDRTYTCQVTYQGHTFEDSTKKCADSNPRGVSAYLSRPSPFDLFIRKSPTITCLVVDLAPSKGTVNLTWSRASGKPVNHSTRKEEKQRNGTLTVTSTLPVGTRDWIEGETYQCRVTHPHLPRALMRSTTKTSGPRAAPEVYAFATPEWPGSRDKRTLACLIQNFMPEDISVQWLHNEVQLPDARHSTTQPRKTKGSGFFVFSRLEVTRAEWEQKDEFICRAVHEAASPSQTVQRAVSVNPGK
B1: the “RBL-ER51 calcium signalling IC50 (Geomean), Human IgE” value came out at 0.398 nM.

Regarding B2, the “RBL-ER51 calcium signalling IC50 (Geomean), Human IgE” value was determined as 0.306 nM.

Consider B3, for which the “RBL-ER51 calcium signalling IC50 (Geomean), Human IgE” value was 0.532 nM.

Consider B4, for which the “RBL-ER51 calcium signalling IC50 (Geomean), Human IgE” value was 0.262 nM.

For the molecule B5, the “RBL-ER51 calcium signalling IC50 (Geomean), Human IgE” value turned out to be 0.088 nM.

B6: the “RBL-ER51 calcium signalling IC50 (Geomean), Human IgE” value came to 0.292 nM.

With B7, the “RBL-ER51 calcium signalling IC50 (Geomean), Human IgE” value came out at 0.099 nM.

B8: the “RBL-ER51 calcium signalling IC50 (Geomean), Human IgE” value worked out at 0.091 nM.

As to B9, the “RBL-ER51 calcium signalling IC50 (Geomean), Human IgE” value stood at 0.191 nM.

Consider B10, for which the “RBL-ER51 calcium signalling IC50 (Geomean), Human IgE” value came out at 0.109 nM.

Turning to B11, the “RBL-ER51 calcium signalling IC50 (Geomean), Human IgE” value came out at 0.134 nM.

On to B12, for which the “RBL-ER51 calcium signalling IC50 (Geomean), Human IgE” value was 0.088 nM.

Take B13: the “RBL-ER51 calcium signalling IC50 (Geomean), Human IgE” value worked out at 0.096 nM.

B14: the “RBL-ER51 calcium signalling IC50 (Geomean), Human IgE” value came to 0.095 nM.

In the next assay the target is recombinant chimaeric cynomolgus IgE (D12 variable regions, cynomolgus IgE constant region) (cynomolgus monkey). Briefly: cell-based or functional assay.
Chain of recombinant chimaeric cynomolgus IgE (D12 variable regions, cynomolgus IgE constant region) (cynomolgus monkey) (heavy, as listed by the source limits assumed, chain 1 of 2): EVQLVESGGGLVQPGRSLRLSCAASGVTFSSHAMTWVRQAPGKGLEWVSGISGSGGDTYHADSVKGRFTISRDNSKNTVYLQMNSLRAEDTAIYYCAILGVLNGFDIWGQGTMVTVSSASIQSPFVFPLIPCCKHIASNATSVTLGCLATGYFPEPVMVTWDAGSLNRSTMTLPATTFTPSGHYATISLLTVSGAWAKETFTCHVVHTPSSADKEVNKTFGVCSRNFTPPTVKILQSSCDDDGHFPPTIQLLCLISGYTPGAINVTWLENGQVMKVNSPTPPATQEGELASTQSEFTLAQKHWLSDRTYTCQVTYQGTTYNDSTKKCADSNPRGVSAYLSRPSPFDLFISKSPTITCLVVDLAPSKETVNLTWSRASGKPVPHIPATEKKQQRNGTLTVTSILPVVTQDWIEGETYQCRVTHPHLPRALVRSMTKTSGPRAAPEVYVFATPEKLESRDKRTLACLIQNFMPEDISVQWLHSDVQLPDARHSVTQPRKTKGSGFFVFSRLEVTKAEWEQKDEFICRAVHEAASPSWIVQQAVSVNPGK
Chain of recombinant chimaeric cynomolgus IgE (D12 variable regions, cynomolgus IgE constant region) (cynomolgus monkey) (light, as listed by the source limits assumed, chain 2 of 2): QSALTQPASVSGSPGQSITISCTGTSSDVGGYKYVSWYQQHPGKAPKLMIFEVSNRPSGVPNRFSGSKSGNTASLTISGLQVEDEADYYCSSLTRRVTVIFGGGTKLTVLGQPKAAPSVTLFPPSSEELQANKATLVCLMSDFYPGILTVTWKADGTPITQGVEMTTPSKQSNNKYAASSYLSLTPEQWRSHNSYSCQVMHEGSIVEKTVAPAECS
Take B1: the “RBL-ER51 calcium signalling IC50 (Geomean), Cynomolgus IgE” value came out at 5.1 nM.

Take B2: the “RBL-ER51 calcium signalling IC50 (Geomean), Cynomolgus IgE” value amounted to 3.58 nM.

Regarding B4, the “RBL-ER51 calcium signalling IC50 (Geomean), Cynomolgus IgE” value was determined as 2.66 nM.

A further assay addresses T1, human IgEλ (U266 derived). Briefly: HTRF competition: scFv against Eu-cryptate human IgE binding to human FcεRI-Fc.
For the molecule B15, the IC50 came to 8 nM.

Regarding B16, the 50% inhibitory concentration (IC50) turned out to be 6 nM.

Take B17: the IC50 was 6 nM.

As to B18, the IC50 is 11 nM. This IC50 lies about 1.8-fold higher than the previous one.

B19 displayed an IC50 of 1 nM.

In turn, B20 had an IC50 of 9 nM.

B21 displayed an IC50 of 5 nM. This IC50 lies about 1.8-fold lower than the previous one.

With B22, the IC50 amounted to 10 nM.

The molecule B23 displayed an IC50 of 9 nM. The IC50 values of the last two molecules are within 1.5-fold of each other.

The molecule B24 registered an IC50 of 9 nM. That is a single-digit nanomolar value.

The molecule B25 came in with an IC50 of 12 nM.

In the case of B26, the IC50 worked out at 28 nM.

In turn, B27 displayed an IC50 of 1 nM.

For the molecule B28, the IC50 came out at 6 nM.

The molecule B29 returned an IC50 of 8 nM.

In turn, B30 yielded an IC50 of 9 nM.

The molecule B31 registered a half-inhibitory concentration (IC50) of 7 nM.

In a further assay the target is T1, human IgEλ (U266 derived). Briefly: HTRF competition: scFv against Eu-cryptate human IgE binding to human FcεRI-Fc; geomean. (TR-FRET usually uses a lanthanide donor and a delayed reading to cut background.)
B32 showed an IC50 of 3 nM.

In a further assay the target is T1, human IgEλ (U266 derived). Briefly: SPR (BIAcore 2000): IgG captured on protein G', IgE as analyte, bivalent analyte model; geomean. On the technique in general: Surface plasmon resonance follows binding to a sensor surface in real time, without labels.
Protocol: In brief, Protein G′ (Sigma Aldrich, P4689) was covalently coupled to the surface of a CM5 sensor chip using standard amine coupling reagents according to manufacturer's instructions (BIAcore). […] The resulting sensorgrams were evaluated using BIA evaluation 3.1 software and fitted to a bivalent analyte model, to provide relative binding data.
In turn, B3 registered a Kd of 8 nM.

With B5, the Kd is 2.1 nM.

In turn, B6 registered a Kd of 4.6 nM.

In turn, B7 yielded a Kd of 3.2 nM.

The molecule B8 had a Kd of 2.4 nM.

B9 returned a Kd of 3.3 nM.

For the molecule B10, the Kd amounted to 2.7 nM.

B11 yielded a Kd of 2.3 nM.

The molecule B12 returned a Kd of 2.3 nM.

On to B13, for which the Kd amounted to 2.1 nM.

The molecule B14 had a Kd of 2.5 nM.

Another assay addresses T1, human IgEλ (U266 derived). Briefly: HTRF competition: scFv against Eu-cryptate human IgE binding to human FcεRI-Fc; geomean (95% CI).
B33: the IC50 worked out at 475 nM. This lies in the sub-micromolar range.

B34 had an IC50 of 5 nM.

As to B35, the IC50 was determined as 3 nM.

In turn, B36 showed an IC50 of 2 nM.

Take B37: the IC50 amounted to 2 nM.

B38: the IC50 turned out to be 5 nM. Against the preceding molecule, the IC50 is about 2.5-fold higher.
